Measured values as given in article PMC2888057.

Target: KCNQ1 H363C in the cysteine-less background (human) (UniProt P51787)

## KCNE1 D76C in the cysteine-less, HA-tagged background (from UniProt P15382 1-129) (natural protein)
  time constant of oxidant (0.1% H2O2)-induced current reduction, H363C with D76C: 50 s
